Data taken from publication PMC5916898, “Global profiling of protein–DNA and protein–nucleosome binding affinities using quantitative mass spectrometry”.

T1: ZNF148 (Homo sapiens, UniProt Q9UQR1)
T1 sequence: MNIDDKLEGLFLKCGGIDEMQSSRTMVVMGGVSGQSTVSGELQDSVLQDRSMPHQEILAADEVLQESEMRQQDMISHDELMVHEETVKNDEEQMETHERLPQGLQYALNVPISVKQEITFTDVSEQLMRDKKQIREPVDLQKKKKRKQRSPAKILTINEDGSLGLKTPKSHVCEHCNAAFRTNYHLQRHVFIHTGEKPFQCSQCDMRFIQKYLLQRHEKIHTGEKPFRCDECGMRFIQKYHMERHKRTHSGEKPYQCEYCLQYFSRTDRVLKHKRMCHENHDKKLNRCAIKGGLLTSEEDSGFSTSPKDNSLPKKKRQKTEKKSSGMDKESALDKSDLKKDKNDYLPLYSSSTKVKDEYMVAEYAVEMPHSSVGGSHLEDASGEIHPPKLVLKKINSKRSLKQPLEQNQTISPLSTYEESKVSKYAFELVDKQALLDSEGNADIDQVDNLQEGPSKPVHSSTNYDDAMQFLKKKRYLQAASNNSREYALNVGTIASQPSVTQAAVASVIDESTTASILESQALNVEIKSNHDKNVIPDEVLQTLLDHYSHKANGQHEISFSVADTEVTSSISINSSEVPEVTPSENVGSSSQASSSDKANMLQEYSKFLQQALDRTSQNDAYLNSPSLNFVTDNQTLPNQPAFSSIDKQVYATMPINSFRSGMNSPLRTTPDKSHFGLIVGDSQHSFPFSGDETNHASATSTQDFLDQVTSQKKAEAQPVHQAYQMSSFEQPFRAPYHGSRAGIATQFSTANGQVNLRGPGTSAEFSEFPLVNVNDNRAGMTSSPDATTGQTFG

T2: BBX (Homo sapiens, UniProt Q8WY36)
T2 sequence: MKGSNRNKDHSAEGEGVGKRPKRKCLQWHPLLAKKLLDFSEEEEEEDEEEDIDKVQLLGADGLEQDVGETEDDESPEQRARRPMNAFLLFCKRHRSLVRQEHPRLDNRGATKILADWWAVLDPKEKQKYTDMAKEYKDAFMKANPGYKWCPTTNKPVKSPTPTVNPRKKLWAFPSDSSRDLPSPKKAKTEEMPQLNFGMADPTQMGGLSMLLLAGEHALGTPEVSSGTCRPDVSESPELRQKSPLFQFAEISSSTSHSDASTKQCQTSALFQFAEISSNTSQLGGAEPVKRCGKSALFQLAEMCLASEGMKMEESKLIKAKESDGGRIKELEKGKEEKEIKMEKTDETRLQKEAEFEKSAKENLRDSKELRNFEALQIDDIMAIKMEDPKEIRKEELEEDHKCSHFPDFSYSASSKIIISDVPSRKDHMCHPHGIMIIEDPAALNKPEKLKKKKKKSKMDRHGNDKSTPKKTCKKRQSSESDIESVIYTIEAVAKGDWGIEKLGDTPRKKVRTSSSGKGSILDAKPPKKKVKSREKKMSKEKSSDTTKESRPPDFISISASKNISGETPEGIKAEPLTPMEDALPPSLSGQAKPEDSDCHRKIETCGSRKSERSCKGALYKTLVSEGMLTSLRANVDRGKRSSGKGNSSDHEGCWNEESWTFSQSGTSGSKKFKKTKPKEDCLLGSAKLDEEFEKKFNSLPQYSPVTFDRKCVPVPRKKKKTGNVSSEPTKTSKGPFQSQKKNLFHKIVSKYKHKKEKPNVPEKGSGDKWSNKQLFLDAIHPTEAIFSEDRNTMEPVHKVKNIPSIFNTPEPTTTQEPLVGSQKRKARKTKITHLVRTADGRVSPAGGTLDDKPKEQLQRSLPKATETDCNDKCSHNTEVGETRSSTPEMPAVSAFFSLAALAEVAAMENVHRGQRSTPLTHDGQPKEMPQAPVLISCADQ

B1: CTCF (dsDNA)
DNA 1: TCAGAGTGGCGGCCAGCAGGGGGCGCCCTTGCCAGA
DNA 2: TCTGGCAAGGGCGCCCCCTGCTGGCCGCCACTCTGA
B2: TATA-box (dsDNA)
DNA 1: GCGGCGCTCTATATAAGTGGGCAGTG
DNA 2: CACTGCCCACTTATATAGAGCGCCGC
B3: TEAD (dsDNA)
DNA 1: TCGGGACCCAGGCCTGGAATGTTTCCACC
DNA 2: GGTGGAAACATTCCAGGCCTGGGTCCCGA
B4: SP/KLF wild-type (dsDNA)
DNA 1: GAGAGCCCCGCCCCCTGGCT
DNA 2: AGCCAGGGGGCGGGGCTCTC

biological target: T1, ZNF148; assay: pulldown; 150 mM NaCl, 50 mM Tris pH 8, 0.25% NP-40, 1 mM TCEP; 4 C, 2 h; 100 ug HeLa nuclear lysate; settings: protein: extract; label: 5' biotin (strand 1)

| Binder | apparent K (half saturation) [nM] |
| --- | --- |
| B1 | 63.7 |
| B2 | 383 |
| B3 | 387 |
| B4 | 70.5 |

biological target: KLF4 (Homo sapiens, UniProt O43474); assay: as above; settings: protein: extract; label: 5' biotin (strand 1)
Sequence (O43474 whole entry): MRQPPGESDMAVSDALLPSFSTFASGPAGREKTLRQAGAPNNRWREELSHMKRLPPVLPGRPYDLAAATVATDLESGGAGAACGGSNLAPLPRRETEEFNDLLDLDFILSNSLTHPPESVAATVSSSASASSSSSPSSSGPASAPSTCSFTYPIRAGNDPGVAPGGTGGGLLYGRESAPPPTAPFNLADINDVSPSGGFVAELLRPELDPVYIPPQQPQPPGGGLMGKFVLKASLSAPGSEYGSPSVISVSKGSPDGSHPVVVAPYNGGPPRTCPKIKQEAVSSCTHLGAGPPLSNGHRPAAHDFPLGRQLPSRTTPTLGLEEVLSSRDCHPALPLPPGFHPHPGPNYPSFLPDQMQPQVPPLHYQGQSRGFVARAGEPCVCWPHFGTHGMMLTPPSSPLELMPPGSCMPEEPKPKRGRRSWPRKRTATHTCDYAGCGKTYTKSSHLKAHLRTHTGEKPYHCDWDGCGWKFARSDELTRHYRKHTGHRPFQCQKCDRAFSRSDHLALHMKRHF

| Binder | apparent K (half saturation) [nM] |
| --- | --- |
| B1 | 26.3 |
| B2 | 159 |
| B4 | 79.3 |

biological target: TFAP2A (Homo sapiens, UniProt P05549); assay: as above; settings: protein: extract; label: 5' biotin (strand 1)
Sequence (P05549 whole entry): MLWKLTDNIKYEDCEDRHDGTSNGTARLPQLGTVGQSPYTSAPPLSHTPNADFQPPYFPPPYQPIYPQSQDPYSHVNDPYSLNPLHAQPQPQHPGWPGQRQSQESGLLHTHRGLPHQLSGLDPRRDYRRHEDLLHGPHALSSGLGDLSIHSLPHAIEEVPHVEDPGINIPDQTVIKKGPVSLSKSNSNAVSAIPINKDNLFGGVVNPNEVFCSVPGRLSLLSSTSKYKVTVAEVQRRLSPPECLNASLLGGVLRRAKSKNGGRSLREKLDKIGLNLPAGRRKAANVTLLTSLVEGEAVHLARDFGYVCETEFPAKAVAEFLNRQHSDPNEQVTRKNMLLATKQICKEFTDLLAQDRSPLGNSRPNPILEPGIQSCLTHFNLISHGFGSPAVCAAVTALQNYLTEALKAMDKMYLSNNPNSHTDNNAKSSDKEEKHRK

| Binder | apparent K (half saturation) [nM] |
| --- | --- |
| B1 | 83.3 |
| B2 | 328 |
| B3 | 193 |
| B4 | 196 |

biological target: ZBTB7A (Homo sapiens, UniProt O95365); assay: as above; settings: protein: extract; label: 5' biotin (strand 1)
Sequence (O95365 whole entry): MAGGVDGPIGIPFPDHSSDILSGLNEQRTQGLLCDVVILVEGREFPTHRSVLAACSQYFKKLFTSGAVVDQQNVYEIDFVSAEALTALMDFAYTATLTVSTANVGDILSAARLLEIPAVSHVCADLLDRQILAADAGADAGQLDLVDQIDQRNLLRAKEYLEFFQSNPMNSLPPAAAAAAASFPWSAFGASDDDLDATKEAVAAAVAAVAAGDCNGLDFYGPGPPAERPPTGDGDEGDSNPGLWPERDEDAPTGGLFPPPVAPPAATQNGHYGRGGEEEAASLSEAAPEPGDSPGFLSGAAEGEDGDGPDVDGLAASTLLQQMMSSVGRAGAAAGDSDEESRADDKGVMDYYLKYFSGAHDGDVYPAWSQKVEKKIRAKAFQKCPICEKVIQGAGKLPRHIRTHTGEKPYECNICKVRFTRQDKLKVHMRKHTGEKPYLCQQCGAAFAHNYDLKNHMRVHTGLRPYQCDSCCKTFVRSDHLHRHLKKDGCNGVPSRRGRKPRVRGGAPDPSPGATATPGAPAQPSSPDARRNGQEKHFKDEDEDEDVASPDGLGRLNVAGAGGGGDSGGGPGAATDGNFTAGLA

| Binder | apparent K (half saturation) [nM] |
| --- | --- |
| B1 | 38.9 |
| B2 | 258 |
| B3 | 129 |
| B4 | 174 |

biological target: T2, BBX; assay: as above; settings: protein: extract; label: 5' biotin (strand 1)

| Binder | apparent K (half saturation) [nM] |
| --- | --- |
| B1 | 308 |
| B2 | 405 |
| B3 | 390 |

biological target: KLF5 (Homo sapiens, UniProt Q13887); assay: as above; settings: protein: extract; label: 5' biotin (strand 1)
Sequence (Q13887 whole entry): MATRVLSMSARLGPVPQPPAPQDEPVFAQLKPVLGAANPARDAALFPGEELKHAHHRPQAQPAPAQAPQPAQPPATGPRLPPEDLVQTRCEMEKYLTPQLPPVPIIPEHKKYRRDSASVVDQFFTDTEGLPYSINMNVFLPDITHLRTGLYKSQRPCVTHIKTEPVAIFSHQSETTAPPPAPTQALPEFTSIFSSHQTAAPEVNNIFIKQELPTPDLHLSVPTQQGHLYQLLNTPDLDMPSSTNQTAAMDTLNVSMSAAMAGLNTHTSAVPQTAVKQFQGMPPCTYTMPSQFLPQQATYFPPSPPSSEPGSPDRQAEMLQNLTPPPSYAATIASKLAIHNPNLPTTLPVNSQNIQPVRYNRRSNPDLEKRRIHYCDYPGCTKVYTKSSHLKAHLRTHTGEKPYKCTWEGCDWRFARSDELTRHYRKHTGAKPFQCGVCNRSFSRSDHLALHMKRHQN

| Binder | apparent K (half saturation) [nM] |
| --- | --- |
| B1 | 25.3 |
| B2 | 219 |
| B3 | 101 |
| B4 | 37 |

biological target: KLF16 (Homo sapiens, UniProt Q9BXK1); assay: as above; settings: protein: extract; label: 5' biotin (strand 1)
Sequence (Q9BXK1 whole entry): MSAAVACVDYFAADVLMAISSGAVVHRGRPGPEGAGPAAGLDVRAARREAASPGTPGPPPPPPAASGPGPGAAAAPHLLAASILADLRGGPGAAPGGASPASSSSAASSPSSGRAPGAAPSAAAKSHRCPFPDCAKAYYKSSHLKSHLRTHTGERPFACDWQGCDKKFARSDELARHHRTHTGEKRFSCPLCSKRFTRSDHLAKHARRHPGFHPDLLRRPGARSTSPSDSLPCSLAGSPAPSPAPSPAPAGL

| Binder | apparent K (half saturation) [nM] |
| --- | --- |
| B1 | 109 |
| B2 | 151 |
| B4 | 14.5 |

biological target: SP1 (Homo sapiens, UniProt P08047); assay: as above; settings: protein: extract; label: 5' biotin (strand 1)
Sequence (P08047 whole entry): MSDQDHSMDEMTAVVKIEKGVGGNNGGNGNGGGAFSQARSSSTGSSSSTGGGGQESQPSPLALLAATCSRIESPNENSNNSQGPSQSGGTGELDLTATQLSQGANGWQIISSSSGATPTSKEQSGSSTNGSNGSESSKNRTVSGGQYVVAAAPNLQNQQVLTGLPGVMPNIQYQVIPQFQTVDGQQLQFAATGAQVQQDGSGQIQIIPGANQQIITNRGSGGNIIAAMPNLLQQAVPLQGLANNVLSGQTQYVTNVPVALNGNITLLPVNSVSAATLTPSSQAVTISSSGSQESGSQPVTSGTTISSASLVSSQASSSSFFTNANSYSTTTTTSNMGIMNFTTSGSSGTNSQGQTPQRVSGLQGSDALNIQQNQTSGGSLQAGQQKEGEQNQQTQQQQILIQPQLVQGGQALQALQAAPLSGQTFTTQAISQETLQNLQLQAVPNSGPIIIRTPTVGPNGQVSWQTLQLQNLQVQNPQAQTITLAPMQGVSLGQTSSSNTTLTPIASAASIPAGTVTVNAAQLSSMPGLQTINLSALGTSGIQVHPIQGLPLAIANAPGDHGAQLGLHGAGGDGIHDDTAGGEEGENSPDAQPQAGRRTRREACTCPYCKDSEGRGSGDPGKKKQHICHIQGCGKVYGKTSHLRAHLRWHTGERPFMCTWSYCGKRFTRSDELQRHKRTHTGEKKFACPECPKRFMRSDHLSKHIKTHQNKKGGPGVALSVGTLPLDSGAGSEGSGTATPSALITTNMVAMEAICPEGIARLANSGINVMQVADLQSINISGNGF

| Binder | apparent K (half saturation) [nM] |
| --- | --- |
| B1 | 86.9 |
| B2 | 284 |
| B4 | 38 |
